Our source for the amyloid nucleation score values is the supplement of paper PMC12042874.

± gives the uncertainty stated by the source.

The series is described as follows: amyloid nucleation score (Sup35N fusion, yeast selection) (log enrichment); library NNK1; higher = more nucleation; inactive = no reads after selection. A digest of the protocol:
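Using DiMSum, nucleation scores were taken as the log enrichment of output over input reads, centred on the mode score of non-aggregating sequences. The input and output reads came from Illumina sequencing of plasmid inserts, with sequences under 100 input reads excluded. The yeast were psi-negative, expressed Sup35N fused to peptides of 20 random codons, were induced with 100 μM copper sulfate for 24 hours, and were grown 7 days at 30°C on medium lacking adenine and uracil.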
In the case of PFGLRYQLRIRHYTMIEELS, the amyloid nucleation score was 1.88 ± 0.29.
Next, PFHLF: 0.831 ± 0.39.
Next, PFIARAFKLMLAWVLFCRAA: 0.171 ± 0.75.
In the case of PFRMQNDIVRDQYSVKLQWF, the amyloid nucleation score was determined as 3.29 ± 0.17.
Under PFSDSVARSDGCGVQRV stands -0.444 ± 1.2.
Under PGLMDLSVCKKCWNCCYTYD stands -0.294 ± 0.65; under PGSIYMSPGCGYIQAVRDHI, -0.205 ± 0.35.
Consider PGSKAWFGSLISCLTPWVLR, for which the amyloid nucleation score is -0.563 ± 0.85.
In turn, PGVPPPKRA gave an amyloid nucleation score of 0.294 ± 0.66.
Under PHGKRPGHFLKVLLAFSWRW stands 0.038 ± 0.56.
Under PHPPAPKK stands 0.067 ± 0.59; under PIDGTFL, -0.69 ± 0.62; under PILFYDQSFLILWQINGAGG, “inactive”.
Under PIWLTDKFGG stands -0.24 ± 0.61.
Substance PIYVAGLGIVI registered an amyloid nucleation score of -0.308 ± 1.1.
Under PKDLIVTTLHAWCDRHSYT stands -0.49 ± 0.76.
For the substance PKVWGGIHYFHFVTEYSTIS, the amyloid nucleation score is 0.309 ± 0.29.
Next, PLCEKSGCSLNFDEERQTLW: 1.43 ± 0.51.
Under PLNKSEAESLFKLLTLLDRN stands -1.39 ± 0.46; under PLRNGWFLRKLRS, -1.35 ± 1.3; under PLTFSCSLGKGFTWYFCLNV, -0.196 ± 0.45.
Substance PLVGGRNCGKDFPSLTDTPV gave an amyloid nucleation score of -0.06 ± 0.27.
Under PLYGASDK stands -0.277 ± 0.97; under PMFSSGLT, 0.099 ± 0.42.
Next, PMHSLTASYNDSHFRNRGVM: “inactive”; PMTPTCPLTNASTCPSTDRR: -0.644 ± 0.74.
Under PNIFCLQRSPNRP stands -0.331 ± 0.31; under PQPYTRNIERLAYVFTLDMP, -0.21 ± 0.27.
Turning to PRCNSFNSYCFA, the amyloid nucleation score came to 0.224 ± 0.29.
As to PRIRHHSLYCVVYWFIIDRT, the amyloid nucleation score entry was “inactive”.
Under PRNVFMSKTNNHFQRAFSVT stands 0.925 ± 0.69.
Take PSHYWNRVLLIWRLSGCVVY: the amyloid nucleation score is -0.145 ± 0.29.
Under PSLASCSRL stands 0.28 ± 0.41; under PSMARPAARTHVDNNRWR, -0.051 ± 0.56.
Under PSPQWYGDDNVTSRWRLLAV stands 0.548 ± 0.28; under PSRWIAVPSMEVKVL, 0.16 ± 1.1; under PSSNLRFFTLNFAFLVPISS, -0.521 ± 0.64.
Next, PTSSMI: 0.488 ± 1; PTYTGVLSLN: 0.341 ± 0.56.
In the case of PVGVKGVQMVLS, the amyloid nucleation score was -0.226 ± 0.83.
Consider PVLKPGFL, for which the amyloid nucleation score was -0.266 ± 0.5.
Next, PVMSRPAARMMGDSCHWSNR: -0.585 ± 0.8; PVVGRARRYRREAAENVVLD: 0.943 ± 0.6; PWRCLM: “inactive”.
Under PWTTG stands 0.298 ± 0.24; under PWYTRLRRK, -0.338 ± 1.4.
Under PYHEMGIYYLGGLYSK stands 0.743 ± 1.1.
Substance PYKIEWLSRTHTAGSYSLQP returned an amyloid nucleation score of -0.135 ± 0.44.
Next, PYLGNLNSLQGFYLS: 0.176 ± 0.78; PYLNY: -0.153 ± 0.43; PYRYKSGWATTQSLRREQLD: -0.743 ± 1.3.
Substance PYSLQSTLHVRER yielded an amyloid nucleation score of 0.485 ± 0.35.
Under PYVSHCGIHFFGWFSWSRAS stands 0.583 ± 0.46; under PYYFEGGEAQTPRHSDGQWM, -0.769 ± 0.56; under QAFISFVVSFRWHLTCRS, 1.18 ± 0.64.
Under QAHLNLVSRIIIMWS stands 0.067 ± 0.79.
Next, QAYLKVQVWLDRRNSI: “inactive”; QCSSANTSGIAETSTSLGRT: -0.244 ± 1.1; QCVRLDVTT: -2.14 ± 2.1.
Substance QDLTEWTYSLAPFMVFHTRP had an amyloid nucleation score of -0.519 ± 1.2.
Under QDYGDDLRSGFRGYLSSPQG stands 0.264 ± 0.32.
Under QFEFNFTKEDQYYEGFPVDW stands -0.827 ± 1.7; under QFLRALGYAERRVGRRWLGW, -0.065 ± 0.71; under QFRCFHLL, -0.026 ± 1.2.
Under QGIEKGFDWKRIFCGELYVQ stands -0.065 ± 0.4; under QGIVAVLED, “inactive”.
As for QGKISGNRRSFFWW, the amyloid nucleation score was -0.765 ± 0.44.
Under QGKKPGGFQNEDMVVVLKWR stands -0.601 ± 0.46.
For the substance QGLAGHLSRRYFY, the amyloid nucleation score is -1.96 ± 2.1.
Next, QHTTVRFRTGDKRNQFLSSI: -0.843 ± 1.1; QISRCILNNPRPCLSF: 1.01 ± 0.9; QISRLKHYQTHVRMLLTLEG: -0.068 ± 0.42.
As for QIWTFRGRVLVGHTSREVVG, the amyloid nucleation score was 0.122 ± 0.24.
For the substance QKPTMFGA, the amyloid nucleation score is -0.338 ± 0.28.
Next, QKRRKLARLASRYFPS: 0.325 ± 0.57; QKWNMFVSSWVYDRRRTRGC: 0.301 ± 1.1.
Under QLLAVMWKGHHVYRELCGRL stands -0.549 ± 0.46; under QLRNLFHFYTGITDSRFLLH, 1.93 ± 0.52; under QLSFCYHLCWVICEGMVLEV, -0.245 ± 0.42.
Under QLSTISFLQWSGSACSSTVH stands -0.49 ± 0.74; under QMIMAMNSFLISYLNHMWPG, 2.13 ± 0.1.
In turn, QMLQVPYQSFVALGVAWVRT showed an amyloid nucleation score of 0.646 ± 0.66.
Under QNRSHKPEFGRMPASQPVTN stands 0.447 ± 0.63.
Next, QNTSEYSLRRERSR: -0.341 ± 0.5; QNVRSLVHSYLKGTNSSLVG: -0.01 ± 0.74; QPLSLCLVFDCTNISFSFQA: 8.594 ± 0.045.
In turn, QPPKHMTMYVYVDTHEAVLS displayed an amyloid nucleation score of -0.133 ± 0.38.
Next, QQGPFVCWIQR: -0.583 ± 1.1.
Under QQLALPPWSCLWQ stands 0.095 ± 0.49; under QQSFVTSLVMYVDRYRFVQV, 0.809 ± 0.85; under QRGAVVQDLAM, 0.728 ± 0.71.
Under QRILTSYGRDMLTSLLRSMP stands 1.01 ± 0.58; under QRLLTYPLLYVTSNVLRFYR, -0.001 ± 0.7; under QRSLMDAPMGKPRESNLLLV, 1.1 ± 0.57.
In the case of QRSNRGLPYKSRDGI, the amyloid nucleation score stood at 0.153 ± 0.39.
The substance QSFSKKEESYILYITRVHEP gave an amyloid nucleation score of 0.88 ± 0.69.
The substance QSFSSSMHHDHDNWDQCCES yielded an amyloid nucleation score of 0.522 ± 0.59.
For the substance QTDLLYSIYRSKDNSGLNLV, the amyloid nucleation score amounted to 0.75 ± 0.56.
Substance QTHEYGLPRMIR yielded an amyloid nucleation score of 0.884 ± 0.69.
For the substance QTLDRNNARSSDNGCSVGGA, the amyloid nucleation score was -0.476 ± 1.9.
Under QTMVTLGSKLIYDESGIVMV stands “inactive”.
Next, QVLSHSKHNIVLDYHLETCG: 1.84 ± 0.38; QVRCAFVIRRSV: 0.143 ± 0.64.
On to QVRGTEVPVSIAVGLGTSRL, for which the amyloid nucleation score is 1.05 ± 0.66.
Next, QVRSSDSGLVNHFVNE: “inactive”; QVTRDGSYVGCGGGRRREMC: -0.359 ± 1.9.
Substance QVVPC registered an amyloid nucleation score of -0.153 ± 0.66.
QWRSFYTAWVAYRDECPGGF came in with an amyloid nucleation score of 2.44 ± 0.15.
Under QWVSMTEVYFVVNKRWMCSR stands -1.39 ± 1.6.
Next, QYFKNDVKYVPFG: -0.514 ± 1.1; QYMLFMYLGVVLKCH: 0.644 ± 0.59.
Under QYRGDIYKISG stands 1.29 ± 0.56; under QYRRVSILSSVLLYCPNYCQ, -1.38 ± 2.7.
As to QYSCGSYYLERSGNVSRRKS, the amyloid nucleation score was -0.084 ± 1.6.
Under QYSCN stands 1.72 ± 0.46; under QYSVHINNVTLRPKHRYVQ, -0.065 ± 0.29; under QYTYFMSGDWSNGRVSLVKK, 2.96 ± 0.099.
Next, QYVPNETVDI: 1.4 ± 0.25; RACLQFRQLVGDRLG: 1.52 ± 0.73.
Next, RAGTFTVSTQGPS: 0.268 ± 0.28; RALAVSRMRAYPSLRGEYLN: 0.076 ± 1.2; RALRGSECGMNRRPLRGCVK: -0.167 ± 0.22.
RAMKWLYVSNNDNMRKHFFS: the amyloid nucleation score was -0.712 ± 0.42.
Under RARQNAFREW stands -0.301 ± 0.35; under RASILCA, 0.268 ± 0.66.
Next, RASSFAEIPVVSCDGGLVKW: -0.129 ± 0.41; RASTNLRSEIDVNNRGWLRW: 1.32 ± 0.42.
Next, RCELMNIEFWVKHYGSSSGF: 1.64 ± 0.18.
Substance RCGCERTYSFR returned an amyloid nucleation score of -0.027 ± 0.72.
Under RCGRAINGVQCVHWFVMSEG stands 0.429 ± 0.58.
Under RCLIDCD stands 0.157 ± 0.52.
Substance RCSLPLWFQYYGAMTVHGTV showed an amyloid nucleation score of 0.61 ± 0.35.
Take RCVETSFTSGFIVGELLMRM: the amyloid nucleation score was -0.84 ± 1.3.
Next, RCVMFQVRHSNIGRKRDYGI: 0.389 ± 1.2; RCWRSLPRLLRQFMDSSRTI: -0.27 ± 0.61.
Next, RDFYNCS: 0.166 ± 0.26.
In the case of RDMVKLHVHTLHCNDDILGL, the amyloid nucleation score was -0.896 ± 0.62.
Under RDNCSLNVYFK stands 2.9 ± 0.14; under RDNKLSVAVVMQSYSVGESG, -0.034 ± 0.89; under RDPRAMQLKSRLGMWKNQWY, 0.91 ± 0.78.
Under RDSGLVGIPLTRTRIVKLST stands -0.35 ± 0.56.
